Test results: patent publication US20190309079A1 (Regeneron, published 2019)

Key:
[1] = target: rat LEPR extracellular domain expressed with a C-terminal myc-myc-hexahistidine tag (rLEPR.mmh) (rat, UniProt Q62959 22-839); test: SPR, captured mAb, 25C and 37C
Description: (§1) Equilibrium dissociation constants (KD values) for LEPR binding to purified anti-LEPR monoclonal antibodies were determined using a real-time surface plasmon resonance biosensor using a Biacore 4000 instrument. All binding studies were performed in 10 mM HEPES, 150 mM NaCl, 3 mM EDTA, and 0.05% v/v Surfactant Tween-20, pH 7.4 (HBS-ET) running buffer at 25° C. and 37° C. The Biacore sensor surface was first derivatized by amine coupling with a monoclonal mouse anti-human Fc antibody (GE, # BR-1008-39) to capture anti-LEPR monoclonal antibodies. […] Kinetic association (kₐ) and dissociation (kd) rate constants were determined by fitting the real-time binding sensorgrams to a 1:1 binding model with mass transport limitation using Scrubber 2.0c curve-fitting software. Binding dissociation equilibrium constants (KD) and dissociative half-lives (t½) were calculated from the kinetic rate constants as: […]

[2] = target: mouse LEPR extracellular domain expressed with a C-terminal myc-myc-hexahistidine tag (mLEPR.mmh) (mouse, UniProt P48356 22-839); test: SPR, captured mAb, 25C and 37C
Description: as §1

[3] = target: extracellular domain of Macaca fascicularis LEPR (amino acids 22-837 of XP_005543194.1, T827A) fused with the … (Macaca fascicularis; human); test: cell-based or functional assay
[4] = target: T1, extracellular domain of human LEPR (amino acids 22-839 of P48357, Isoform B) with N-terminal myc-myc tag, … (human, UniProt P48357 22-839, GPI anchor at the C-terminus); test: FACS, 70 nM Ab, HEK293/hLEPR-GPI, no Leptin
T1 construct: also called HEK293/Mycx2-hLepR(Ecto)-GPI anchored cells
T1 sequence: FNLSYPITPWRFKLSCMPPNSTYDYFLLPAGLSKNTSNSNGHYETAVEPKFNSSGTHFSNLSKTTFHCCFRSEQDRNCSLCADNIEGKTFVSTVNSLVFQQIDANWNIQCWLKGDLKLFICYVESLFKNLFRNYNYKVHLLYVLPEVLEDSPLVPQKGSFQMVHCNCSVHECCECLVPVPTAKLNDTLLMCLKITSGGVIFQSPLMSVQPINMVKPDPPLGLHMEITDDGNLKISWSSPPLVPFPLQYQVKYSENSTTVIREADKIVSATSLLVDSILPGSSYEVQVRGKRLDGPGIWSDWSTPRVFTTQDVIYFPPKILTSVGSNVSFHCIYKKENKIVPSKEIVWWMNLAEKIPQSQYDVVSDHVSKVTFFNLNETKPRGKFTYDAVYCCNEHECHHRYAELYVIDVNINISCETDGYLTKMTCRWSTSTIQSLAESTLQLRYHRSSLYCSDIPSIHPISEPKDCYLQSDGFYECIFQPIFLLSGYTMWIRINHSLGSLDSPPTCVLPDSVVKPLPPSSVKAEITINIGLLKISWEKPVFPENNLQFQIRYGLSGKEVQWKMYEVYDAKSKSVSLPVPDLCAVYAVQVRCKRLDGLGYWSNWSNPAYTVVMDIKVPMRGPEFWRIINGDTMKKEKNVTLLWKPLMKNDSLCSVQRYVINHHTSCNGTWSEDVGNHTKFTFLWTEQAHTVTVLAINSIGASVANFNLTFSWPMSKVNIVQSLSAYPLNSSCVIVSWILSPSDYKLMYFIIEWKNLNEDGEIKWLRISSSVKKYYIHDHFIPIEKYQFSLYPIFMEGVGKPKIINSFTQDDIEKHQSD

[5] = target: T2, full length human LEPR (amino acids 1-1165 of P48357, Isoform B) on cells (human, UniProt P48357 22-1165); test: cell-based or functional assay
T2 sequence: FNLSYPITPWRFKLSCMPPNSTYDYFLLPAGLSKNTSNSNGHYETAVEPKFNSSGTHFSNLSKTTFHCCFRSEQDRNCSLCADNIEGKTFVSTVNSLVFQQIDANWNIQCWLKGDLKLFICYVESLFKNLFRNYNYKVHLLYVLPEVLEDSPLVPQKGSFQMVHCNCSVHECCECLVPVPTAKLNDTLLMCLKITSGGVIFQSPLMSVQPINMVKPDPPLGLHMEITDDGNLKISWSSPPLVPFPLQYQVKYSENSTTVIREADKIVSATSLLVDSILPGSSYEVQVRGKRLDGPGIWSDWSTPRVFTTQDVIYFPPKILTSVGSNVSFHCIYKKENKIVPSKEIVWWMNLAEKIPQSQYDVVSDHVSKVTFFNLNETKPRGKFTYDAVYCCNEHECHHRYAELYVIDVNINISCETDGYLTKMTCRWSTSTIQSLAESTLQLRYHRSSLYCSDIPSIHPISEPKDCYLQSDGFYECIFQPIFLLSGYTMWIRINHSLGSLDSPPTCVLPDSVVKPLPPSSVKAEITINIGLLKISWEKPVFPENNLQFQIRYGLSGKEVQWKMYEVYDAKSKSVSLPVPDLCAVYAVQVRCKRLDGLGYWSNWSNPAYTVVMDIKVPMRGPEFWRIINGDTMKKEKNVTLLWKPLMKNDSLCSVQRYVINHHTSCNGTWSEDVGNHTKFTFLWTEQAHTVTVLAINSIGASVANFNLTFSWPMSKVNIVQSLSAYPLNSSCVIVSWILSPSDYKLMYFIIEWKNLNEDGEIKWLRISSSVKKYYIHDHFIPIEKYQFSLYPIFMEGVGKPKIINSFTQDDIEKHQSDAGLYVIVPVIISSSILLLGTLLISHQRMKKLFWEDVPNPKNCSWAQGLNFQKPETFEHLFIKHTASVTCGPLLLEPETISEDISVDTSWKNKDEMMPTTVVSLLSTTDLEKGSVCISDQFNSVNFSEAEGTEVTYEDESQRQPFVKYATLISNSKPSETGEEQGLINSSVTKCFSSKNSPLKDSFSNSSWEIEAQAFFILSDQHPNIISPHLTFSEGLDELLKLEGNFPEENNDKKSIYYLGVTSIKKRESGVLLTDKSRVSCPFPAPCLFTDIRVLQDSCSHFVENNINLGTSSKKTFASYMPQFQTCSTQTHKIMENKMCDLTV

[6] = target: T2, full length human LEPR (amino acids …); test: FACS, 70 nM Ab, HEK293/Stat3-luc/hLEPR-FL, no Leptin

rat LEPR extracellular domain expressed with a C-terminal myc-myc-hexahistidine tag (rLEPR.mmh), sequence (Q62959 other isoform, or with tags, fused parts or gaps): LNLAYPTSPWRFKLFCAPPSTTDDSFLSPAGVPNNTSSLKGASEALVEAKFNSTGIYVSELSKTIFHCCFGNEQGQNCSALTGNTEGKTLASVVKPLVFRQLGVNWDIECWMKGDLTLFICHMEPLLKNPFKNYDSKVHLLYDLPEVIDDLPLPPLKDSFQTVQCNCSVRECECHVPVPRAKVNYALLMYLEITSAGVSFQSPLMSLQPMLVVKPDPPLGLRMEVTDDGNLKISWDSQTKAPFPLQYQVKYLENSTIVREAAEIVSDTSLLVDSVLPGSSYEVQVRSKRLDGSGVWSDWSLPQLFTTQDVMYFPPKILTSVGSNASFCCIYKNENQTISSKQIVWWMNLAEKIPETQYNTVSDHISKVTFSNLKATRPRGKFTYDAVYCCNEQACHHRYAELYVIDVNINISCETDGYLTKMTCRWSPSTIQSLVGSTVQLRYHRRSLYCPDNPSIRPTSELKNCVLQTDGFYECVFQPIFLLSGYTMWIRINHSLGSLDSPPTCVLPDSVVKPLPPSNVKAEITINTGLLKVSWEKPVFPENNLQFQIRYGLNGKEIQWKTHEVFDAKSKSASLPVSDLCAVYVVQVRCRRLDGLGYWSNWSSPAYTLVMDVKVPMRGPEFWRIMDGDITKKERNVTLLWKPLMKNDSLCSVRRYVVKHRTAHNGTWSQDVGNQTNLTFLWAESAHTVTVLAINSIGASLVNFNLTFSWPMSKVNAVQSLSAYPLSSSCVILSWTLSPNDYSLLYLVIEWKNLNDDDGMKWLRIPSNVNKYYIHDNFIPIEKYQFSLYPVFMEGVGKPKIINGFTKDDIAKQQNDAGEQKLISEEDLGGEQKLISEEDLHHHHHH
mouse LEPR extracellular domain expressed with a C-terminal myc-myc-hexahistidine tag (mLEPR.mmh), sequence (P48356 other isoform, or with tags, fused parts or gaps): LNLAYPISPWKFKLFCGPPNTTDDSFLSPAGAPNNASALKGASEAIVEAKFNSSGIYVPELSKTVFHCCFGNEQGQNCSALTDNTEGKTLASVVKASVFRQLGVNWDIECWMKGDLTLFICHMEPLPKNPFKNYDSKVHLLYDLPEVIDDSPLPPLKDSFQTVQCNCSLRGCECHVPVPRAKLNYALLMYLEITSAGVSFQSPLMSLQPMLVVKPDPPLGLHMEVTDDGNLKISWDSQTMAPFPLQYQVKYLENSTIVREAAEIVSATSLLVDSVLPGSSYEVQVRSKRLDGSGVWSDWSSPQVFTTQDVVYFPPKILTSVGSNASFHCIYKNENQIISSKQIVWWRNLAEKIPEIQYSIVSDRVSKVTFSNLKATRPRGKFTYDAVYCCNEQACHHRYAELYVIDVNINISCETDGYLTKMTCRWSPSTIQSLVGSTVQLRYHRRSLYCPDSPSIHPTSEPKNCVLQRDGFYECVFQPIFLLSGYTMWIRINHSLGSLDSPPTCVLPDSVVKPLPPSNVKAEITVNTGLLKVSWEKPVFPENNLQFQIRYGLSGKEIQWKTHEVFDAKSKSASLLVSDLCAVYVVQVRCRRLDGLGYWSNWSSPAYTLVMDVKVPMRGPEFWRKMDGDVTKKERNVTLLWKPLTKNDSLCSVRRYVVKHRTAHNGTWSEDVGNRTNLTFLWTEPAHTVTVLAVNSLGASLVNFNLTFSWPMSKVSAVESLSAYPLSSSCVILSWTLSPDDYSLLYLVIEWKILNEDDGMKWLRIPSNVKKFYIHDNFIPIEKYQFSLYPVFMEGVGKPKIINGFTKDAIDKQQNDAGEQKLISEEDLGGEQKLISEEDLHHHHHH

Binder	binding result [1]	binding result [2]	EC50 (M); STAT3-Luc reporter, IMR-32/STAT3-Luc/MfLEPR cells [3] [M]	Binding Ratio (normalized to unstained) [4] [fold]	% activation; IMR-32/LEPR with 200 pM human Leptin [5] [%]	% activation; IMR-32/LEPR without human Leptin [5] [%]	EC50 (M); IMR-32/LEPR with 200 pM human Leptin [5] [M]	EC50 (M); IMR-32/LEPR without human Leptin (STAT3-Luc reporter) [5] [M]	Binding Ratio (normalized to unstained) [6] [fold]
H4H16679P2 (antibody, V domains shown) VH: QVQLVESGGGVVQPGRSLRLSCTASGFTFSSYAMYWVRQAPGKGLEWVSVIYYDGSYKYYADSVKGRFTISRDNSKNTLYLQMDSLRAEDTAVYYCASYNWNYWYFDFWGRGTLVTVSS VL: not shown	no binding (tested: 100 nM)	no binding (tested: 100 nM)	2.49e-10	1080	88	65	7.37e-11	8.62e-11	51
H4H17321P2 (antibody, V domains shown) VH: QVQLVESGGGVVQPGRSLRLSCEASGFSSSDNAMYWVRQAPGKGLEWVSVIYHDGSYKYYEDSVKGRFTIARDNSKNTLYLQMNSLRAEDTAVYYCARYNWNHWYFDVWGRGTLVTVSS VL: not shown	no binding (tested: 100 nM)	no binding (tested: 100 nM)	3.68e-10	1130	76	66	2.57e-10	2.07e-10	46
H4H18446P2 (antibody, human IgG4, V domains shown, human IgG4 Fc) VH: EVQLVESGGGLVQPGGSLRLSCAASGFTFSNYGMTWVRQAPGKGLEWVSAITGGGGSTYYSNSVKGRFTISRDNSKNTVYLRMNSVRAEDTAVYYCAKYKWNFVDDWGQGTTVTVSS VL: not shown	no binding (tested: 100 nM)	no binding (tested: 100 nM)	–	–	68	6	3.42e-11	3.73e-10	–
H4H17319P2 (antibody, V domains shown, also called REGN4461) VH: QVQLVESGGSVVQPGRSLRLSCAASGFTFSTYAMYWVRQTPGKGLEWVAVLYSDGSNKYYIDSVKGRFTISRDTSTNTLYLQMSSLRADDSALYYCARLNWDYWYFDLWGRGTLVTVSS VL: not shown	no binding (tested: 100 nM)	no binding (tested: 100 nM)	3.65e-10	1130	76	68	1.91e-10	1.87e-10	47
H4H18445P2 (antibody, human IgG4, V domains shown, human IgG4 Fc) VH: QVQLQESGPGLVKPSQTLSLTCTVSGGSISSGGDYWSWIRQLPGKGLEWIGYIYYSGSAYYNPSLKSRGTISIDTSKNQFSLKLTSVTAADTAVYFCVKLRFLEWFLGGWFGPWGQGTLVTVSS VL: not shown	no binding (tested: 100 nM)	no binding (tested: 100 nM)	–	–	97	5	4.1e-10	1.19e-08	–
